Results taken from US20180258175A1 (ABLEXIS, published 2018).
Positions count from the first letter of the chain named.

B1: CCK-422A (antibody, V domains shown)
VH: QVQLQESGPGLVKPSETLSLTCSVSGGSISSYYWSWIRQPPGKGLEWIGYVSYSGGTNYNPSLKSRVTISVDTSKNQFSLKLSSVTAADTAVYYCARGFDYWGQGTLVTVSS
VL: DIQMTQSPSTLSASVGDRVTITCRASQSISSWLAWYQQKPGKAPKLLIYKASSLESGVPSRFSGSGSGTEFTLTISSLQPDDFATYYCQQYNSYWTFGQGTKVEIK
notes: AlivaMab chimeric IgG, human kappa LC
B2: CCK-424A (antibody, V domains shown)
VH: B1 VH with S23T, G44V, V51F, S54N, G56N, A96T, F99M, Y101V, L107T
VL: DIQMTQSPSTLSASVGDRVTITCRASQSISDWLAWYLQKPGKAPKLLIYKASSLESGVPSRFSGSGSGTAFTLTISSLQPDDFATYYCQQYNSHWTFGQGTKVEIK
notes: as for B1
B3: CCL-310A (antibody, V domains shown)
VH: EVQLVESGGGLVQPGGSLRLSCAASGFTFSNYWMRWVRQAPGKGLEWVANIKQDGSEKYYVDSVKGRFTISRDNAKYSLYLQMNSLRAEDTAVYYCARDRLGIFDYWGQGTLVTVSS
VL: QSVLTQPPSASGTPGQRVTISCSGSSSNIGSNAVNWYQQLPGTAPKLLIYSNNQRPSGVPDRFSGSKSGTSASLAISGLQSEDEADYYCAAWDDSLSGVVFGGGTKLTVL
B4: CCK-505A (antibody, V domains shown)
VH: EVQLVESGGGLVQPGGSLRLSCAASGFTFSSYSMNWVRQAPGKGLEWVSYISSSSSTIYYADSVKGRFTISRDNAKNSLYLQMNSLRDEDTAVYYCAREGERFCGADCYPHWFDPWGQGTLVTVSS
VL: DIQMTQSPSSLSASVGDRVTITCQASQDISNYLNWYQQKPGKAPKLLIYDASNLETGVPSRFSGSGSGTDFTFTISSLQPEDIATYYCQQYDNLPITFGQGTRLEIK
notes: as for B1
B5: CCL-329A (antibody, V domains shown)
VH: QVQPQESGPGLVKPSETLSLTCTVSGGSISGYYWSWIRQPAGTGLEWIGRIYTSGSTNYNSSLKSRVTMSVDTSKNQFSLKLSSVTAADTAVYYCARERMATIFDYWGQGTLVTVSS
VL: not shown
notes: AlivaMab chimeric IgG, human lambda LC
B6: CCL-231A (antibody, V domains shown)
VH: QVQLQESGPGLVKPSETLSLTCTVSGGSISSYYWSWIRQPAGKGLEWIGRIYTSGNTNYNPSLKSRVTMSLDTSKNQFSLKLSSVTAADTAVYYCARVGAIGVDAFDIWGQGTMVTVSS
VL: QSALTQPASVSGSPGQSITISCTGTSSDVGSYNLVSWYQQHPGKAPKLMIYEGSKRPSGVSNRFSGSKSGNTASLTISGLQAEDEADYYCCSYAGSSTFVVFGGGTKLTVL
notes: as for B5
B7: CCL-215A (antibody, V domains shown)
VH: EVQLVESGGGLVQPGGSLRLSCAASGFTFSSYSMNWVRQAPGKGLEWVSYISSSSSTIYYADSVKGRFTISSDNAKNSLYLQMDSLRDEDTAVYYCARDRLGIPFDYWGQGTLVTVSS
VL: not shown
notes: as for B5
B8: CCL-225A (antibody, V domains shown)
VH: EVQLVESGGGLVKPGGSLRLSCAASGFTFSSYNMNWVRQAPGKGLEWVSSISSSSNYIYYADSVKGRFTISGDTAKNSLFLQMISLRVEDTAVYYCARDRLGIPFDYWGQGSLVTVSS
VL: not shown
notes: as for B5
B9: CCK-511A (antibody, V domains shown)
VH: EVQVVESGGGLVQPGKSLRLSCAASGFPFSVYWMTWVRQAPGKGLEWVANIKQDGSEKYYVDSVKGRFTISRDNAKNSLYLQMNSLRAEDTAVYCCASGYHLFDYWGQGTLVTVSS
VL: not shown
notes: as for B1
B10: CCK-526A (antibody, V domains shown)
VH: B9 VH with P28T, V31T
VL: not shown
notes: as for B1
B11: CCK-542A (antibody, V domains shown)
VH: QVQLQESGPGLVKPSETLSLTCTVSGGSISSYYWSWIRQPAGKGLEWIGRIYSSGSINYNPSLKSRVTMSVDTSKNQFSLKLSSVTAADTAVFYCARDRAFYGMDVWGQGTTVTVSS
VL: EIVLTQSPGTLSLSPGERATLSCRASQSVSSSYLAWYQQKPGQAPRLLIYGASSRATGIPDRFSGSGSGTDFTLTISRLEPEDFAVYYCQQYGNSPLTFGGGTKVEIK
notes: as for B1
B12: CCL-313A (antibody, V domains shown)
VH: QVQLQESGPGLVKPSETLSLTCTVSGGSISSYYWSWIRQPPGKGLEWIGYIYYTGSTNYNPSLKSRVTISVDTSKNQFSLKLSSVTAADTAVYYCARGWWELTFFDYWGQGTLVTVSS
VL: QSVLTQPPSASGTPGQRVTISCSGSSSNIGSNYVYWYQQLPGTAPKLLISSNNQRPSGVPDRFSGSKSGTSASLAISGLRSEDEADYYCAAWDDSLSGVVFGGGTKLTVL
notes: as for B5
B13: CCK-455A (antibody, V domains shown)
VH: EVQLVESGGGLVQPGGSLRLSCAASGFTFSSYWMHWVRQAPGKGLVWVSRINSDGSSTSYADSVKGRFTISRDNAKNTLYLQMNSLRAEDTAVYYCARDGGTTGAFDIWGQGTMVTVSS
VL: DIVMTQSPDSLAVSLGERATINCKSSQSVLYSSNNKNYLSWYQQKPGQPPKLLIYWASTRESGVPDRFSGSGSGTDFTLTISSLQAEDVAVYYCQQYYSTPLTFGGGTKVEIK
notes: as for B1
B14: CCL-327A (antibody, V domains shown)
VH: QVQLQESGPGLVKPSETLSLTCSVSGGSISSYHWSWIRQPAGKGLEWIGRIYTGGSTNYNPSLKSRVTMSVDTSKNQFSLKLSSVTAADTAVYYCARERLTGYFDYWGQGTLVTVSS
VL: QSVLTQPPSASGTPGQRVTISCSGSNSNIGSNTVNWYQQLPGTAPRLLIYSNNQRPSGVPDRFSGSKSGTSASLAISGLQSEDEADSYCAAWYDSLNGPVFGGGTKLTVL
notes: as for B5
B15: CCL-217A (antibody, V domains shown)
VH: B14 VH with S23T, H33Y, T53S, G54S, S56T, D72E, K81N, L100I, Y103H
VL: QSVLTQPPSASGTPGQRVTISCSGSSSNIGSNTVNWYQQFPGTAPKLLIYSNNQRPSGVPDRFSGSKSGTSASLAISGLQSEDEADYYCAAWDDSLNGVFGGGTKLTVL
notes: as for B5
B16: CCK-458A (antibody, V domains shown)
VH: QITLKESGPPLVKPTQTLTLTCTFSGFSLSTSGVGVGWIRQPPGKALEWLALIYWNDDKRYSPSLKSRLTITKDTSKNQVVLTMTNMDPVDTATYYCAHSPRYSGYFDYWGQGTLVTVSS
VL: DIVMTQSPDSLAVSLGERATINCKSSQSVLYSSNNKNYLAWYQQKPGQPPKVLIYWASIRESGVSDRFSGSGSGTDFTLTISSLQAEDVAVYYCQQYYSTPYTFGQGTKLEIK
notes: as for B1
B17: CCK-435A (antibody, V domains shown)
VH: QVQLQQWGAGLLKPSETLSLTCAVYGGSCSAYYWSWIRQPPGKGLEWIGEINHSGSTNYNPSLKSRVTISVDTSRNQFSLKLSSVTAADTAVYYCAREADAFDIWGQGTMVTVSS
VL: not shown
notes: as for B1
B18: CCL-340A (antibody, V domains shown)
VH: EVQLVESGGGLVKPGGSLRLSCAASGFTFSSYSMKWVRQAPVKGLEWVSSISSSSSYIYYGDSVKGRFTISRDNAKNSLYLQMNSLRAEDTAVYYCARERLGRAFDIWGQGTMVTVSS
VL: not shown
notes: as for B5
B19: CCK-522A (antibody, V domains shown)
VH: QITLKESGPTLVKPTQTLTLTCTFSGFSLSTSGVGVGWIRQPPGKALEWLALIYWNDDKRYSPSLKSRLTITKDTSKNQVVLTMTNMDPVDTATYYCAHQERRSGWSFDYWGQGTLVSVSS
VL: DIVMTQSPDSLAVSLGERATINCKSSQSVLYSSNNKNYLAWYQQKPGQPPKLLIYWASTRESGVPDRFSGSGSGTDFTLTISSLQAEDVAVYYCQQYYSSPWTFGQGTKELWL
notes: as for B1
B20: CCK-417A (antibody, V domains shown)
VH: QVTLRESGPALVKPTQTLTLTCTFSGFSLSTSGMCVSWIRQPPGKALECLALIDWDDDKYYSTSLKTRLTISKDTSKNQVVLTMTNMDPVDTATYYCARTQLGIADYWGQGTLVTVSS
VL: AIRMTQSPSSFSASTGDRVTITCRASQGISSYLAWYQQKPGKAPKLLIYAASTLQSGVPSRFSGSGSGTDFTLTISCLQSEDFATYYCQQYYSYPFTFGPGTKVDIK
notes: as for B1
B21: CCK-402A (antibody, V domains shown)
VH: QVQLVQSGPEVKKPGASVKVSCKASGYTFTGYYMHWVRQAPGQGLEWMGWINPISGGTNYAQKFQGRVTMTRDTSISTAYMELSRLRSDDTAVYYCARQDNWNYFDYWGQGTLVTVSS
VL: DIVMTQTPLSLPVTPGEPASISCRSSQSLLDSDDGNTYLDWFLQKPGQSPQLLIYTLSYRASGVPDRFSGSGSGTDFTLKISRVEADDVGVYYCMQRIEFPFTFGQGTKLEIK
notes: as for B1
B22: CCK-412A (antibody, V domains shown)
VH: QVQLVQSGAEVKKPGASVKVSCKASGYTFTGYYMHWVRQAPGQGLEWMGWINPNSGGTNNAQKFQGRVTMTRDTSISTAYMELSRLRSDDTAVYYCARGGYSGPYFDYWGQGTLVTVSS
VL: DIQMTQSPSSVSASVGDRVTITCRASPGISSWLAWYQQKPEKAPKLLIYAASSLQSGVPSRFSGSGSGTDFTLTISSLQPEDFATYYCQQAYSFPYTFGQGTKLEIK
notes: as for B1

Columns and labels:
[1] = biological target: T1, human CD115 extracellular domain (Sino Biological 10161-H08H) (human, UniProt P07333 20-517); assay: competition ELISA, competitor TMR 100A;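 also: clonal anti-huCD115 hybridoma supernatants tested for binding with the competitor antibody present, clones failing to bind are assigned to the competitor's epitope bin; low signal means same epitope bin as the mouse competitor antibody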
T1 construct: extracellular domain; bought recombinant protein; also called huCD115; hu-CD115

[2] = biological target: T1, human CD115 extracellular domain (Sino …); assay: competition ELISA, competitor TMR 20A;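 also: epitope binning by ELISA, anti-huCD115 hybridoma supernatant antibodies tested for binding to huCD115 with the competitor antibody present, loss of binding placing them in the competitor's bin; low signal means same epitope bin as the mouse competitor antibody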
[3] = biological target: T1, human CD115 extracellular domain (Sino …); assay: competition ELISA, competitor TMR 24A;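 also: clonal anti-huCD115 hybridoma supernatant antibodies bound with a competitor mouse antibody present, and failure to bind puts a clone in that competitor's epitope bin; low signal means same epitope bin as the mouse competitor antibody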
[4] = biological target: T1, human CD115 extracellular domain (Sino …); assay: competition ELISA, competitor TMR 35A;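 also: clonal hybridoma supernatant antibodies added to wells after the competitor mouse antibody, lost binding signal puts an antibody in that competitor's epitope bin; low signal means same epitope bin as the mouse competitor antibody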
[5] = biological target: T1, human CD115 extracellular domain (Sino …); assay: competition ELISA, competitor TMR 44B
[6] = biological target: T1, human CD115 extracellular domain (Sino …); assay: competition ELISA, competitor TMR 95A
[7] = biological target: T1, human CD115 extracellular domain (Sino …); assay: SPR ProteOn, supernatant mAb captured on anti-mouse IgG, Hu CD115 analyte

Binder | signal vs NO COMP=100 [1] [%] | signal vs NO COMP=100 [2] [%] | signal vs NO COMP=100 [3] [%] | signal vs NO COMP=100 [4] [%] | signal vs NO COMP=100 [5] [%] | signal vs NO COMP=100 [6] [%] | Kd [7] [nM] | koff [7] [s⁻¹] | kon [7] [M⁻¹ s⁻¹]
B1 | 111 | 107 | 11 | 111 | 31 | 6 |  |  | 
B2 | 98 | 98 | 29 | 102 | 53 | 16 |  |  | 
B3 |  |  |  |  |  |  | 0.079 | 4.35e-06 | 50600
B4 | 111 | 53 | 0 | 110 | 10 | 1 |  |  | 
B5 |  |  |  |  |  |  | 0.038 | 4.46e-06 | 118000
B6 |  |  |  |  |  |  | 0.578 | 4.71e-05 | 81000
B7 |  |  |  |  |  |  | 0.215 | 1.83e-05 | 85300
B8 |  |  |  |  |  |  | 0.277 | 1.38e-05 | 50000
B9 | 91 | 77 | 99 | 76 | 2 | 3 |  |  | 
B10 | 84 | 92 | 68 | 82 | 3 | 9 |  |  | 
B11 | 76 | 7 | 94 | 111 | 10 | 23 |  |  | 
B12 |  |  |  |  |  |  | 1.24 | 9.09e-05 | 73600
B13 | 79 | 58 | -1 | 54 | 28 | 0 |  |  | 
B14 |  |  |  |  |  |  | 1.41 | 0.000189 | 133000
B15 |  |  |  |  |  |  | 1.22 | 0.00012 | 98100
B16 | 79 | 22 | 2 | 66 | 17 | 6 |  |  | 
B17 | 17 | 85 | 79 | 96 | 75 | 86 |  |  | 
B18 |  |  |  |  |  |  | 0.367 | 2.72e-05 | 74100
B19 | 67 | 34 | 33 |  | 24 | 7 |  |  | 
B20 | 113 | 110 | 6 | 110 | 19 | 3 |  |  | 
B21 | 147 | 145 | 131 | 11 | 126 | 131 |  |  | 
B22 | 91 | 70 | 13 | 78 | 110 | 3 |  |  | 
